Earlier results in PMC5803488.
Where two headings read alike, the source gives them in different places.

What was measured:
ubiquitin [1] = target: ubiquitin (UniProt P0CG48)
ubiquitin [2] = target: ubiquitin (UniProt P0CG48); remark: listed apart in the source

Sequence of Tsg101 UEV (Q99816 1-148): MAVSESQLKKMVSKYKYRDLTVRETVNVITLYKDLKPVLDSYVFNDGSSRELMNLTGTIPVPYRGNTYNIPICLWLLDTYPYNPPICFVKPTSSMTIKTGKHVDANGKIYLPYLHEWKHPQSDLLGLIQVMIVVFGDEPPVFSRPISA
Sequence of Vps36 (Eap45) GLUE (Q86VN1 1-138): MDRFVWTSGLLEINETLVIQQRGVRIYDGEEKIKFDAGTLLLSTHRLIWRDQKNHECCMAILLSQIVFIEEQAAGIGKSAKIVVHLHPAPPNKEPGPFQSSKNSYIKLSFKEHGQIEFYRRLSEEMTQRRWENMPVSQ

Kd (ubiquitin [1]) [µM] | Kd (ubiquitin [2]) [µM] | Substance
510 | – | Tsg101 UEV (from UniProt Q99816)
– | 330 | Vps36 (Eap45) GLUE (from UniProt Q86VN1)
